Reference: US20250282872A1 (ANAPTYSBIO, published 2025)

What was measured:
[1] = target: cynomolgus monkey BTLA on cells (cynomolgus monkey); test: flow cytometry dot plot, cynomolgus monkey lysed whole blood, CD3 (PerCP Cy5.5) against BTLA (APC), 33 nM antibody
[2] = target: T1, BTLA-ECD, purified recombinant (Example 19)
T1 sequence (Q7Z6A9 31-157, species assumed, looked up): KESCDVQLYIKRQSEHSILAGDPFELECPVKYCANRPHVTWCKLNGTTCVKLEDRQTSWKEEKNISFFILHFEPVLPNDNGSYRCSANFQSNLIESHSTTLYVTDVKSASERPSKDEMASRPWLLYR

[3] = target: β-galactosidase enzyme donor (ED)-tagged human BTLA on Jurkat cells (human, UniProt Q7Z6A9 31-289); test: cell-based or functional assay
[4] = target: T2, cynomolgus monkey BTLA on cells (cynomolgus monkey, UniProt A0A2K5W7M7 31-289); test: flow cytometry on cynomolgus monkey whole blood, staining of CD20+ B cells against CD3+ T cells
T2 construct: whole, on cells; also called 293c18 clone 1G5; BTLA on cynomolgus monkey peripheral blood T and B cells
T2 sequence: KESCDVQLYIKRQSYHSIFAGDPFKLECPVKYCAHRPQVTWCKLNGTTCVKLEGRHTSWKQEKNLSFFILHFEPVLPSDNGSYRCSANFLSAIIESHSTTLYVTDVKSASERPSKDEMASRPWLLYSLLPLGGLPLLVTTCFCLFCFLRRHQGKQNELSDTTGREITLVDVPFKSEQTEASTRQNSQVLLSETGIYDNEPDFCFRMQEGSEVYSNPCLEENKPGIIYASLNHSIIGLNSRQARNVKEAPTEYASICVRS
Description: Blood was then aliquoted into wells and incubated with the indicated concentrations of 6G3-AF647 (APE13766.02), or APC-Mouse Anti-Human CD272 (BTLA) reference antibody (clone J168-540; BD Biosciences) for 30 minutes at room temperature, in the dark. Following incubation, red blood cells were lysed for 10 minutes by addition of 2.0 ml diluted BD Pharm Lyse lysing solution (BD Biosciences), samples centrifuged at 200×g for 5 minutes, washed in FACS Buffer [Dulbecco's PBS, no calcium, no magnesium (Gibco/ThermoFisher Scientific), 25 mM HEPES, pH 7.2, 0.1% BSA, 0.1% sodium azide] and fixed in 4% paraformaldehyde (200 μl/sample) for 10 minutes at room temperature. Samples were washed twice in FACS Buffer and analyzed for fluorescence on a NovoCyte Quanteon flow cytometer (ACEA Biosciences, Inc.). Data were analyzed using NovoExpress Software (ACEA Biosciences, Inc.). Mean fluorescence intensity (MFI) values were graphed and fit with nonlinear regression analyses in GraphPad Prism (GraphPad Software, Inc.). MFI values for each anti-BTLA antibody on total CD3⁺ cells are shown in FIG. 5A; MFI values for each anti-BTLA antibody on total […] are shown in FIG. 5B. […] Binding of each anti-BTLA antibody to CD3⁻ cells in FIG. 5C and FIG. 5D (green cells in the bottom quadrants of each panel) reflects the binding to CD20+ B cells. […]

“APC-Mouse Anti-Human CD272 (BTLA) reference antibody clone J168-540 (BD Biosciences)” gave a % of cells in quadrant Q8-2 (CD3+, BTLA stain positive) [1] of 35.8%, a % of cells in quadrant Q8-4 (CD3-, BTLA stain positive) [1] of 28% and a Total BTLA (% of cells stained) [1] of 63.9%.

B1: Proteinase 3 (PR3), purified recombinant (protein)
chain: IVGGHEAQPHSRPYMASLQMRGNPGSHFCGGTLIHPSFVLTAAHCLRDIPQRLVNVVLGAHNVRTQEPTQQHFSVAQVFLNNYDAENKLNDVLLIQLSSPANLSASVATVQLPQQDQPVPHGTQCLAMGWGRVGAHDPPAQVLQELNVTVVTFFCRPHNICTFVPRRKAGICFGDSGGPLICDGIIQGIDSFVIWGCATRLFPDFFTRVALYVDWIRSTLR
B1 was tested, and the “proteolytic cleavage after co-incubation for up to 60 minutes (gel lanes)” value [2] was “soluble BLTA-ECD was cleaved into multiple smaller fragments”.

B2: 6G3 IgG4 anti-BTLA antibody (antibody, V domains shown)
VH: QVQLVQSGAEVKKPGSSVKVSCKASGYVFSTSWMNWVRQAPGQGLEWMGRIYPGDADTNYVGKFKGRVTITADKSTTTAYMELSSLRSEDTAVYFCAKSGTFNFGNYRWYFDVWGKGTTVTVSS
VL: AIQLTQSPSSLSASVGDRVTITCRVSENIYSHLAWYQQKPGKAPKLLIYAATNLALGVPSRFSGSGSGTDYTLTISSLQPEDFATYYCQLFWGPPLTFGGGTKVEIKR
notes: Humanized, IgG4; also called APE10840; APE10840.03
For B2, the “SHP2 recruitment PathHunter Jurkat BTLA signaling assay with U-2 OS hFcγRIa cells, EC50” value [3] was 0.0093 µg/mL, the “SHP2 recruitment PathHunter Jurkat BTLA signaling assay, soluble antibody, EC50” value [3] was 0.125 µg/mL and the “fold change of agonist potency with against without cell-associated FcγRIa” value [3] was ~13 fold. For the same molecule, the “MFI on B cells relative to MFI on T cells” value [4] was ~9 fold.
